T1: EjNAC3 (Eriobotrya japonica (loquat), UniProt A0A2D3HXD3 1-352)
T1 sequence: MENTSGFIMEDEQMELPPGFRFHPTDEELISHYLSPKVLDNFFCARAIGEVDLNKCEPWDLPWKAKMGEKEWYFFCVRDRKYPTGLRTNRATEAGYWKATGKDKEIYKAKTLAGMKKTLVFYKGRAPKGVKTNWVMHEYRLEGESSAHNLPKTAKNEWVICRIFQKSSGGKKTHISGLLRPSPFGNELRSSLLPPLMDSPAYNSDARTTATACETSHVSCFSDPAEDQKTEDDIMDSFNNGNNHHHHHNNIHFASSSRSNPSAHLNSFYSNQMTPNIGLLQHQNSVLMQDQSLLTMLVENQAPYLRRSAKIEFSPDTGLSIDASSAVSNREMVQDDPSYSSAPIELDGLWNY

B1: EjCAD-like promoter probe (-502 to -454) (dsDNA)
DNA 1: GTCCTATACGTAATCTTATACTCCAAATAAAATTAGGAATGCAGCATAA
DNA 2: TTATGCTGCATTCCTAATTTTATTTGGAGTATAAGATTACGTATAGGAC
B2: EjCAD-like promoter cold probe (-502 to -454) (dsDNA)
DNA 1: B1 DNA 1
DNA 2: B1 DNA 2

Key:
EjNAC3 [1] = molecular target: T1, EjNAC3; assay: EMSA; 5 mM Mg2+, poly(dI-dC), biotinylated probe 1 nM (legend; Methods 2 nM); LightShift kit binding buffer, 5 mM MgCl2, 2.5% glycerol, 0.05% NP-40, 50 ng/ul poly(dI-dC), 50 ng protein, 20 min room temperature; 6% native PAGE, 0.5x TBE; pH and salt not given; conditions: protein: recombinant; tags: His (pET-32a fusion); chain copies: 2; blunt
EjNAC3 [2] = molecular target: T1, EjNAC3; assay: competition; cold probe 100 or 300 nM vs 1 nM biotinylated probe; reduces shift; LightShift kit binding buffer, 5 mM MgCl2, 2.5% glycerol, 0.05% NP-40, 50 ng/ul poly(dI-dC), 50 ng protein, 20 min room temperature; 6% native PAGE, 0.5x TBE; pH and salt not given; conditions: protein: recombinant; tags: His (pET-32a fusion); chain copies: 2; label: none; blunt

Binder | binding result (EjNAC3 [1]) | binding result (EjNAC3 [2])
B1 | binds | 
B2 |  | binds

From paper PMC5853329, “EjNAC3 transcriptionally regulates chilling-induced lignification of loquat fruit via physical interaction with an atypical CAD-like gene”
